Measurements reported in patent US20050191294A1, “Compositions and methods of use of targeting peptides for diagnosis and therapy” (Board of Regents, The University of Texas System, priority 2003, published 2005).

Target: recombinant gst-fused prohibitin [GST: P08515]
Assay: phage binding to gst-prohibitin immobilized on microtiter plate, 10^9 TU, bound TU counted

Chain of recombinant gst-fused prohibitin [GST: P08515] (P08515 whole entry, the tested form may be a part): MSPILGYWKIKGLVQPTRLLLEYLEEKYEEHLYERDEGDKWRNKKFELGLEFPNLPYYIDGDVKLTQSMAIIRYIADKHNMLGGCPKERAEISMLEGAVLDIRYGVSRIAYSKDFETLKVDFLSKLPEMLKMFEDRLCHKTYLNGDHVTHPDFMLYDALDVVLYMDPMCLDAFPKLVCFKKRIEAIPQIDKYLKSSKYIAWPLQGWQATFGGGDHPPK

B1: … (SEQ ID NO:4)-displaying phage (peptide, not shown: large carriers)
peptide: CKGGRAKDC
modifications: not checked
In the case of B1, the fold binding relative to control insertless phage is reported as 8 fold.
